B1: NRG: recombinant neuregulin β1 IG-EGF form provided by Amgen (protein)
chain: KKKERGSGKKPESAAGSQSPALPPRLKEMKSQESAAGSKLVLRCETSSEYSSLRFKWFKNGNELNRKNKPQNIKIQKKPGKSELRINKASLADSGEYMCKVISKLGNDSASANITIVESNEIITGMPASTEGAYVSSESPIRISVSTEGANTSSSTSTSTTGTSHLVKCAEKEKTFCVNGGECFMVKDLSNPSRYLCKCQPGFTGARCTENVPMKVQNQEKAEELYQKRVLTITGICIALLVVGIMCVVAYCKTKKQRKKLHD
B2: GlyB4: purified HBD-S-B4 fusion with HIS tag instead of HA tag (protein)
chain: QSGYKKKERGSGKKPESAAGSQSPALPPRLKEMKSQESAAGSKLVLRCETSSEYSSLRFKWFKPNGNELNRKNKQNIKIQKKPGKSELRINKASLADSGEYMCKVISKLGNDSASANITIVESNEIITGMPASTEGAYVSSESPIRISVSTEGANTSSSTSTSTTGTSGTQSVCAGTENKLSSLSDLEQQYRALRKYYENCEVVMGNLEITSIEHNRDLSFLRSVREVTGYVLVALNQFRYLPLENLRIIRGTKLYEDRYALAIFLNYRKDGNFGLQELGLKNLTEILNGGVYVDQNKFLCYADTIHWQDIVRNPWPSNLTLVSTNGSSGCGRCHKSCTGRCWGPTENHCQTLTRTVCAEQCDGRCYGPYVSDCCHRECAGGCSGPKDTDCFACMNFNDSGACVTQCPQTFVYNPTTFQLEHNFNAKYTYGAFCVKKCPHNFVVDSSSCVRACPSSKMEVEENGIKMCKPCTDICPKACDGIGTGSLMSAQTVDSSNIDKFINCTKINGNLIFLVTGIHGDPYNAIEAIDPEKLNVFRTVREITGFLNIQSWPPNMTDFSVFSNLVTIGGRVLYSGLSLLILKQQGITSLQFQSLKEISAGNIYITDNSNLCYYHTINWTTLFSTINQRIVIRDNRKAENCTAEGMVCNHLCSSDGCWGPGPDQCLSCRRFSRGRICIESCNLYDGEFREFENGSICVECDPQCEKMEDGLLTCHGPGPDNCTKCSHFKDGPNCVEKCPDGLQGANSFIFKYADPDRECHPCHPNCTQGCNGPTSHDCIYYPWTGHSTLPQHAKN
modifications: left off: small tags and cut ends

Assays:
[1] = test system: erbB receptor phosphorylation (p185) in MCF10A cells; test: p185 receptor phosphorylation western blot, MCF10A; type: cell-based, human; conditions: exogenous NRG, 30 min
Method: (§1) Western blots and L6 muscle assays: P185 receptor phosphorylation of the three cell lines was measured by phosphotyrosine western blots after NRG treatment for 30 min on 3 day old cultures as described in WO 03/012045 and Li Q & Loeb J A (2001) J Biol Chem; 276:38068-75. […] The media was discarded and phosphotyrosine western blots were performed as above. The membranes were stripped and reprobed with polyclonal rabbit erbB2 for the detection of overall erbB2 protein that was used for quantitation.

[2] = test system: eight NRG-response proliferation genes in MCF10AT cells; test: Northern blot of proliferation genes, MCF10AT; type: cell-based, human; conditions: 1 nM NRG for 24 hours
Method: (§2) RNA preparation and Northern blotting: MCF10A, MCF10AT and MCFCA1 cells were cultured in 25 cm flasks to approximately 60% confluence. The cells were treated with 1 nM NRG in MCF10A/AT media for 24 hours. The cells were then washed with phosphate buffered saline (PBS) once and harvested. Total RNA was extracted from cells using Ultraspec (Biotecx Laboratories, Inc.), “cleaned up” by Rneasy® purification kit (Qiagen, Valencia, Calif.), and subsequently to quantified using a fluorescent dye binding method called Ribogreen (Molecular Probes, Eugene, Oreg.). Northern blots were performed as described previously (Li & Loeb, supra) on RNA extracted from the 3 breast epithelial cell lines after NRG treatment in MCF10A/AT media verses control MCF10A/AT media. Probes were generated by PCR and then prepared by random priming to full-length cDNA clones from the clones provided by Alphagene Inc as described. The membranes were reprobed with a ^32P-labeled GAPDH probe for normalization.

MCF10A cells = test: Cell proliferation assay, MCF10A; type: cell-based, human; conditions: 1 nM NRG for 24 hours, three days after plating
Method: (§3) Cell proliferation assays: All three breast epithelial cell lines were plated at 5000 cells/well in 48 well plates in regular MCF10A/AT or MCF10CA1 media. After incubation for 3 days, 1 nM NRG in MCF10A/AT media or just MCF10A/AT media alone were applied to the cells for another 24 hours followed by washing them with culture media and then counting cell numbers using an hemocytometer on the 4th, 5th, 6th, 7th and 8th day.

MCF10AT cells = test: Cell proliferation assay, MCF10AT; type: cell-based, human; conditions: 1 nM NRG for 24 hours, three days after plating
Method: as §3

[3] = test system: MCF10CA1 human breast cancer cells; test: Cell proliferation assay, MCF10CA1; type: cell-based
Method: as §3
(§4) After 2 days, the Optimem I conditioned media was concentrated by Centricon at 4° C. 40 μl of IgB4 conditioned media or 10 μM of tyrosine kinase inhibitor AG1478 were combined with […] 1 nM NRG in MCF10A/AT media for 15 min at room temperature before being added to MCF10CA1 cells for 30 min treatment. […] The amount of each antagonist was determined empirically based on its ability to block NRG-induced activation of L6 cells.

[4] = test system: erbB receptor phosphorylation (p185) in MCF10CA1 cells; test: p185 receptor phosphorylation western blot, MCF10CA1; type: cell-based, human; conditions: exogenous NRG, 30 min; above high basal levels
Method: as §1, §4

[5] = test system: eight NRG-response proliferation genes in MCF10CA1 cells; test: Northern blot of proliferation genes, MCF10CA1; type: cell-based, human; conditions: 1 nM NRG for 24 hours
Method: as §2

[6] = test system: eight NRG-response proliferation genes in MCF10A cells; test: Northern blot of proliferation genes, MCF10A; type: cell-based, human; conditions: 1 nM NRG for 24 hours
Method: as §2

[7] = test system: erbB receptor phosphorylation (p185) in MCF10AT cells; test: p185 receptor phosphorylation western blot, MCF10AT; type: cell-based, human; conditions: exogenous NRG, 30 min
Method: as §1

Heparin column binding = conditions: conditioned media; anti-HA western blot of flow through and elution
Method: (§5) 4. Cell culture: The L6 cells were cultured in DMEM supplemented with 10% fetal calf serum, 1 mM L-glutamine and 1000 U/ml penicillin/streptomycin at 37° C. in 10% CO2 incubator. The HEK293 cells were cultured in DMEM with 10% fetal calf serum, 1 mM L-glutamine, 2 mM sodium pyruvate, 0.1 mM non-essential amino acids, 1000 U/ml penicillin/streptomycin at 37° C. in 10% CO2 incubator. The selective antibiotics Geneticin 200 μg/ml (Gibco-Invitrogen) was added to the cell cultures of stably transfected HEK293 cells harboring the NRG antagonists. 5. Stable expression of NRG antagonists in HEK293 cells: HEK293 cells were cultured in […] flasks to 80% confluence and transfected with the four NRG antagonist constructs using lipofectamine 2000 (Invitrogen Life Science) as instructed. The antibiotic Geneticin was then added at a concentration of 400 μg/ml to the transfected HEK293 cells to select the positive antagonist transfected cells. After three weeks of Geneticin selection, the transfected HEK293 cells were diluted and plated in 96 well plates to yield single positive clones. The single clones that expressed the highest levels of antagonists (confirmed by western blot using HA antibody) were then maintained in culture media with 200 μg/ml Geneticin. Optimem I (Gibco-Invitrogen) was applied to the stably transfected NRG antagonist cell lines at 37° C. in 10% CO2 incubator for 2 days. The conditioned Optimem I media was then used in the following experiments. 6. Heparin column binding: The conditioned media containing the four NRG antagonists was passed through the heparin column to allow binding to heparin. The excessive unbound antagonist proteins were washed off by 1×PBS twice. The antagonist proteins were then eluted by increasing concentration of NaCl (0.25, 0.3, 0.4, 0.5, 0.6 and 1M). The flow through solution from each step was examined by anti-HA western blots, as described later, to determine heparin binding ability of the antagonists. 7. Purification and quantitation of recombinant proteins: The NRG antagonists were purified by anti-HA affinity matrix (3F10) (rat mAb) according to manufacturer's instructions. Briefly, the column was equilibrated with buffer containing 20 mM Tris pH 7.5, 0.1 M NaCl, 0.1 M EDTA, and each antagonist in conditioned medium was applied individually to the anti-HA affinity matrix. Excess unbound antagonist proteins were washed with 20 volume of washing buffer (20 mM Tris pH 7.5, 0.1 M NaCl, 0.1 M EDTA and 0.05% Tween 20). The bound NRG antagonists were eluted with 0.1 M glycine (pH 2). The purified recombinant protein was then quantified using a BioRad Protein Assay kit (Bio-Rad, Hercules, Calif.) 8. Silver stain: Both the conditioned media and the purified NRG antagonists were resolved on 7.5% reducing SDS-polyacrylamide gels. The gel was fixed with 30% ethanol and 10% acetic acid for 30 min. 10% ethanol and ultrapure water were used subsequently to wash the gel before staining with SilverSNAP stain solution with enhancer for 30 min. The gel was then developed using SilverSNAP developer solution with enhancer. 5% acetic acid was used to stop the reaction when the desired band intensity was reached. The gel was dried on filter paper using a vacuum gel dyer. 9. […] Positive control L6 cells were treated with 50 pM NRG alone. L6 cell lysates were prepared and run on 5% SDS-PAGE gel. Western blots of erbB receptor phosphorylation were performed using 4G10 antibody. 10. Western blot: Western blots were performed on both conditioned NRG antagonist media and the antagonist-treated L6 cells. The antagonist proteins and the L6 cells were solubilized in SDS sample buffer and boiled for 5 min as described above (see also Li et al., supra). The NRG antagonists run on 7.5% SDS-PAGE gel were detected by anti-HA mAb HA.11. Phosphotyrosine mAb 4G10 was used to detect phosphorylated erbB receptor (p185) in L6 cell western blot analysis following resolution on overrun 5% reducing SDS-polyacrylamide gels. […]

[8] = test system: erbB receptor phosphorylation (p185) in L6 cells; test: L6 assay: block of NRG-induced erbB receptor phosphorylation (p185); type: cell-based; conditions: preincubated with L6 muscle cells one hour, thoroughly washed before adding recombinant neuregulin
Method: as §5

[9] = test system: Mat BIII rat breast cancer cells; test: Rat syngeneic breast cancer spontaneous metastasis model; type: in vivo; conditions: female Fisher rats, 14-day osmotic mini-pump, about 4 mg/kg/day
Method: The rat syngeneic breast cancer system (Xing et al., Int. J. Cancer 67:423-429 (1996) employs Mat BIII rat breast cancer cells. Tumor cells, for example about 10^6 in 0.1 ml PBS, are inoculated into the mammary fat pads of female Fisher rats. At the time of inoculation, a 14-day Alza osmotic mini-pump is implanted intraperitoneally to dispense the test compound. The compound is dissolved in PBS (e.g., 200 mM stock), sterile filtered and placed in the minipump to achieve a release rate of about 4 mg/kg/day. Control animals receive vehicle (PBS) alone or a vehicle control peptide in the minipump. Animals are sacrificed at about day 14. In the rats treated with the active compounds of the present invention, significant reductions in the size of the primary tumor and in the number of metastases in the spleen, lungs, liver, kidney and lymph nodes (enumerated as discrete foci) are observed. Histological and immunohistochemical analysis reveal increased necrosis and signs of apoptosis in tumors in treated animals. Large necrotic areas are seen in tumor regions lacking neovascularization. […] In contrast, treatment with control polypeptides fails to cause a significant change in tumor size or metastasis.

| Molecule | induction of erbB receptor phosphorylation (p185), MCF10A [1] | regulation of 8 NRG-response genes, MCF10AT [2] | effect on growth rate of MCF10A cells (MCF10A cells) | effect on growth rate of MCF10AT cells (MCF10AT cells) | effect on growth rate of MCF10CA1 cells ([3]; 1 nM NRG for 24 hours, three days after plating) | induction of erbB receptor phosphorylation (p185), MCF10CA1 [4] | regulation of 8 NRG-response genes, MCF10CA1 [5] | regulation of 8 NRG-response genes, MCF10A [6] | induction of erbB receptor phosphorylation (p185), MCF10AT [7] | binding to heparin column (Heparin column binding) | sustained blockade of neuregulin signaling (p185 phosphorylation) [8] | effectiveness at blocking proliferation compared with Herceptin ([3]; 1 nM GlyB4 versus Herceptin 100 μg/ml) | blocking of cancer cell growth ([3]; 1 nM, treated on days 0, 3 and 6, compared to control cells or cells treated with B4) | potency relative to control polypeptides [9] |
| --- | --- | --- | --- | --- | --- | --- | --- | --- | --- | --- | --- | --- | --- | --- |
| B1 | induced strong erbB receptor phosphorylation | rapid down-regulation of all 8 of these genes | sustained reduction in the growth rate | only a small, initial reduction in growth rate | increased the initial growth rate | only a small incremental amount of phosphorylation | very little down-regulation of only a few of these genes | rapid down-regulation of all 8 of these genes | induced strong erbB receptor phosphorylation |  |  |  |  |  |
| B2 |  |  |  |  |  |  |  |  |  | binds to heparin | complete and sustained blockade of neuregulin signaling | comparably, if not slightly more, effective | significantly more potent at blocking cancer cell growth | at least two-fold more potent than the relevant control polypeptides |

Source: patent US7994123B2, “Hybrid proteins with ErbB4 extracellular domain and neuregulin heparin-binding domain for targeting” (Wayne State University, priority 2004, dated 2011)
